“And” between values parts separate entries of the source, which are not always exact repeats. Identical values can stand only once.
Molecular target: the molecule itself
Test: SEC; SE-HPLC on Superdex 200 10/300 GL, 0.1 M Na2CO3 pH 10.3, 0.4 ml/min, detection at 280 nm; purified rCU after xanthine affinity chromatography and Source 15Q fractions

B1: recombinant canine uricase (enzyme, UniProt Q5FZI9 1-304, looked up)
chain: MAHYHNDYKKNDEVEFVRTGYGKDMVKVLHIQRDGKYHSIKEVATSVQLTLSSKKDYVYGDNSDIIPTDTIKNTVHVLAKFKGIKSIETFAMNICEHFLSSFNHVIRAQVYVEEVPWKRFEKNGVKHVHAFIHNPTGTHFCEVEQMRSGPPVIHSGIKDLKVLKTTQSGFEGFIKDQFTTLPEVKDRCFATKVYCKWRYHQGRDVDFEATWDTVRDIVLEKFAGPYDKGEYSPSVQKTLYDIQVHSLSRVPEMEDMEISLPNIHYFNIDMSKMGLINKEEVLLPLDNPYGRITGTAKRKLASKL
notes: Active form is a homo-tetramer; octamers and larger aggregates of the same chain were also seen and separated on Source 15Q; No tag is mentioned; Unmodified (not PEGylated) protein in the SE-HPLC analysis; also called rCU; wDU
- stoichiometry N: 4 and 8
